# Publication PMC3056349 (Neuron, 2011)
# B1: TrkC-Fc (soluble purified TrkC ectodomain fused to human immunoglobulin Fc region) (Fc fusion, rat, UniProt Q03351 32-429, looked up)
# chain: CPANCVCSKTEINCRRPDDGNLFPLLEGQDSGNSNGNASINITDISRNITSIHIENWRGLHTLNAVDMELYTGLQKLTIKNSGLRNIQPRAFAKNPHLRYINLSSNRLTTLSWQLFQTLSLRELRLEQNFFNCSCDIRWMQLWQEQGEARLDSQSLYCISADGSQLPLFRMNISQCDLPEISVSHVNLTVREGDNAVITCNGSGSPLPDVDWIVTGLQSINTHQTNLNWTNVHAINLTLVNVTSEDNGFTLTCIAENVVGMSNASVALTVYYPPRVVSLVEPEVRLEHCIEFVVRGNPTPTLHWLYNGQPLRESKIIHMDYYQEGEVSEGCLLFNKPTHYNNGNYTLIAKNALGTANQTINGHFLKEPFPESTDFFDFESDASPTPPITVTHKPEEDT
# Target: PTPσ-CFP (protein tyrosine phosphatase receptor PTPσ expressed in COS cells) (UniProt Q13332 30-1948)
# Sequence (Q13332 30-1948): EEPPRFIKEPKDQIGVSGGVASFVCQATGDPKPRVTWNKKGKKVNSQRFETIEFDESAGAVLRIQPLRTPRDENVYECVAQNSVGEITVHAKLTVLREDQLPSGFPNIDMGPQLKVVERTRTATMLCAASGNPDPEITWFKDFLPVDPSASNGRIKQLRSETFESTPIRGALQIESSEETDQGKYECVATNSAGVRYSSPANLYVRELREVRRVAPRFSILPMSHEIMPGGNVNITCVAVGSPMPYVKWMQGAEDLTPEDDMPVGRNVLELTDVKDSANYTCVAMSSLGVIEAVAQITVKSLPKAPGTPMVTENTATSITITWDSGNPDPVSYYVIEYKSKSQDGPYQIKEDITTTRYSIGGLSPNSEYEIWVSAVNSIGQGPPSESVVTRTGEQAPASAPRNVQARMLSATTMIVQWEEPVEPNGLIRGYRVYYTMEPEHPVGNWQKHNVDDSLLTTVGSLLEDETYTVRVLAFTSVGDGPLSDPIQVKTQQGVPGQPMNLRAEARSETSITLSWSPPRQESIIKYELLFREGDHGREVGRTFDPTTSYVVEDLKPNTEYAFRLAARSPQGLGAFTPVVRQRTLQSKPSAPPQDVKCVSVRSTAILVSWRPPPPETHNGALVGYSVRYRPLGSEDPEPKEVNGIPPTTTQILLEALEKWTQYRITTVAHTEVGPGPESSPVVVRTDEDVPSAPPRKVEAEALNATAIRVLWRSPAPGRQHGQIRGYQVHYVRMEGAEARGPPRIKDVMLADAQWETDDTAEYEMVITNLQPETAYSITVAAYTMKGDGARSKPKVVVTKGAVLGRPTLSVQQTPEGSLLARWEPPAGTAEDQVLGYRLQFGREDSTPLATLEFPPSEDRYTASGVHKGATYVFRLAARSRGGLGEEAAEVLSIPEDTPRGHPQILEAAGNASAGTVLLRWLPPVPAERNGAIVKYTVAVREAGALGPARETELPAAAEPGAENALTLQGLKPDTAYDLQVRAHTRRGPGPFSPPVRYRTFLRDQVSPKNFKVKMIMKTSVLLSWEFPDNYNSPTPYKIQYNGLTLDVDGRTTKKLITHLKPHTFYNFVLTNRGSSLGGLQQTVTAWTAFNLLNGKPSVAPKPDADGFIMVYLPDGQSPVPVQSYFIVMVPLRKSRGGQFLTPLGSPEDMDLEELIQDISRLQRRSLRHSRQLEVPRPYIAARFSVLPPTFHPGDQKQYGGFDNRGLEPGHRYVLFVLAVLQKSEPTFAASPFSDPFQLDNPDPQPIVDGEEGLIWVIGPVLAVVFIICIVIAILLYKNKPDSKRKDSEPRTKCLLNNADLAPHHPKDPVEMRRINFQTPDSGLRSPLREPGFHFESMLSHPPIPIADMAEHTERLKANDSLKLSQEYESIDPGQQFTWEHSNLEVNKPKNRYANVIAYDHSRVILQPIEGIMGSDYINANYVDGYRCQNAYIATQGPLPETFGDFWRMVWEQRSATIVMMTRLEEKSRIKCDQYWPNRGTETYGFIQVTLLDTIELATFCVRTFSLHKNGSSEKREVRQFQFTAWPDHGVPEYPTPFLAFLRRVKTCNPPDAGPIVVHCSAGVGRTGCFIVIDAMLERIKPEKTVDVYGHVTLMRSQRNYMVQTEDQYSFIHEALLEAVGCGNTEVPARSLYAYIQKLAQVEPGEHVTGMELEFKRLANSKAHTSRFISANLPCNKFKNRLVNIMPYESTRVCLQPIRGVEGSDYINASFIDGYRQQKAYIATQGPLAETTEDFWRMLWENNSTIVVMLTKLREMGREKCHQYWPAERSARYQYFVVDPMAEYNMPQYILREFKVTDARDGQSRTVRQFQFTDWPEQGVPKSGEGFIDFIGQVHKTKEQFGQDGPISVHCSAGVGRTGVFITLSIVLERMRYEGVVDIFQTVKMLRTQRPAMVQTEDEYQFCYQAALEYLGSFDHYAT
# Experiment: cell-surface binding assay
binder,measurement,value
B1,Kd,9.3 nM
